# T1: muCDH19(44-770) with Flag tag (construct I, Mu EC1-5) (mouse)
# T1 construct: leader left out; the entry starts at residue 44; also called Mo EC1-5; mouse Cadherin19
# T1 chain: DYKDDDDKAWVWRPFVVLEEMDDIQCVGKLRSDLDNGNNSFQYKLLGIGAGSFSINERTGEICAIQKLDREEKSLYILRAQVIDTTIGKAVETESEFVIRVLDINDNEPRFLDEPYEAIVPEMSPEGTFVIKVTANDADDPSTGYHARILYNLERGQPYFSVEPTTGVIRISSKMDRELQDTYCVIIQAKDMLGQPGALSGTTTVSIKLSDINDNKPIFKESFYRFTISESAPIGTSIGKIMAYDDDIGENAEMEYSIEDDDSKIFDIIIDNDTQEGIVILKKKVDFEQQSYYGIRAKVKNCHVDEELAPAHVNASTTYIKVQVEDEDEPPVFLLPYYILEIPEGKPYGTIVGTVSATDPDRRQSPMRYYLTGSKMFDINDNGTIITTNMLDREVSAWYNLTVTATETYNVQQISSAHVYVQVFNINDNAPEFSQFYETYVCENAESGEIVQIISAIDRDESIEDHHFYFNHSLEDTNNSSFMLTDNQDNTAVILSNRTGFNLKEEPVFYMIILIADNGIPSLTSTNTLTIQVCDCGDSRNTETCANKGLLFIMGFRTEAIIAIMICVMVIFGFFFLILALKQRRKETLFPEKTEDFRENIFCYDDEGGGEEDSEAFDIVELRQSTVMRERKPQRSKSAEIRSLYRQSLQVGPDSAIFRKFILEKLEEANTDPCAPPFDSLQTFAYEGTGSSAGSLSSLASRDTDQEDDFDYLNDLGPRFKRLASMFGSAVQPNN
# Biological target: T1, muCDH19(44-770) with Flag tag …
# Test: flow cytometry, transfected 293T cells
# Excerpt: The experiment included assaying the anti-CDH19 antibodies against mouse Cadherin19 to determine suitability for binning on these human/mouse chimeras.
binder,measurement,value
"anti-CDH19 antibody 2G6 (Ab ID 13588) (antibody, human IgG1, lambda, V domains shown, Bin 4) VH: QVQLVESGGGVVQPGRSLRLSCAASGFTFSSYGMHWVRQAPGKGLEWVAFIWYDGSNKYYADSVKDRFTISRDNSKNTLYLQMKSLRAEDTAVYYCARRAGIIGTIGYYYGMDVWGQGTTVTVSS VL: SYELTQPPSVSVSPGQTASITCSGDRLGEKYTCWYQQRPGQSPLLVIYQDTKRPSGIPERFSGSNSGNTATLTISGTQAMDEADYYCQAWDSSTVVFGGGTKLTVLG",binding result,binds

# Source: US20220127354A1 (Amgen, published 2022)
